Some targets named below: LC3B (human, UniProt Q9GZQ8 1-120); LC3A (human, UniProt Q9H492 1-121); 1 (human, UniProt Q9H0R8 1-117); GABARAPL2 (human, UniProt P60520 1-117).
What all share (test): BLI
(In general: Biolayer interferometry detects binding as a change in optical thickness at a sensor tip.)

Experiment [1] has as its target GABARAP (γ-aminobutyric acid type A receptor-associated protein) (human, UniProt O95166 1-117).

Where no end group is shown, it is not given here. The star is where a group is joined. Biotin = O=C1N[C@H]2[C@H](CS[C@H]2CCCCC(=O)*)N1

Sequence of GABARAPL2 (P60520 whole entry): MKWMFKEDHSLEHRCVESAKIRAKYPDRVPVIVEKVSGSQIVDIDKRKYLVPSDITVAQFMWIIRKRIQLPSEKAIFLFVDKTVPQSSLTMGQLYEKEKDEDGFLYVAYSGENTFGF
Sequence of 1 (Q9H0R8 whole entry): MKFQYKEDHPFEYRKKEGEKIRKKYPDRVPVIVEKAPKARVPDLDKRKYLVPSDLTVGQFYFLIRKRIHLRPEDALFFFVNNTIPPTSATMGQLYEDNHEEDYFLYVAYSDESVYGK
Sequence of GABARAP (γ-aminobutyric acid type A receptor-associated protein) (O95166 whole entry): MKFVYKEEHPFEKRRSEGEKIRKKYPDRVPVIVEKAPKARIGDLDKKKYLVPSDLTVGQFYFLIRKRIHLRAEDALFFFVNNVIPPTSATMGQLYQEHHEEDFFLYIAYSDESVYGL

B1: EGFR LIR2 peptide (EGFR residues 1190–1210), N-terminally biotinylated (peptide)
peptide: Biotin-STAENAEYLRVAPQSSEFIGA
A word on the Kd: it is the equilibrium constant for the complex coming apart. For the molecule B1, the dissociation constant (Kd) in experiment [1] came to 304 µM; in the experiment with LC3B, 1460 µM; with LC3A, 648 µM; in the experiment with 1 it was 48 µM; in the experiment with GABARAPL2 it was 146 µM.

B2: PCM1 LIR peptide (pericentriolar material 1 protein residues 1954-1968), N-terminally biotinylated (peptide)
peptide: Biotin-ISQKSDEEDFVKVED
As for B2, the Kd in experiment [1] turned out to be 3.7 µM; in the experiment with LC3B, 369 µM; in the experiment with LC3A, 118 µM; in the experiment with GABARAPL2 it was 15 µM.

B3: EGFR LIR1 peptide (EGFR residues 1076–1099), N-terminally biotinylated (peptide)
peptide: Biotin-ALTEDSIDDTFLPVPEYINQSVPK
For B3, the Kd with LC3B amounted to 435 µM; with LC3A it was 231 µM; in the experiment with 1 it was 21.6 µM; with GABARAPL2, 105 µM.

The values are drawn from publication doi:10.1101/2024.07.10.602929 (2024).
